Laboratory results reported in article doi:10.1101/2024.09.18.613619 (bioRxiv, 2024).

Target: T1, Rpn8 (Saccharomyces cerevisiae proteasome lid subunit) (S. cerevisiae, UniProt Q08723 1-338)
T1 sequence (looked up): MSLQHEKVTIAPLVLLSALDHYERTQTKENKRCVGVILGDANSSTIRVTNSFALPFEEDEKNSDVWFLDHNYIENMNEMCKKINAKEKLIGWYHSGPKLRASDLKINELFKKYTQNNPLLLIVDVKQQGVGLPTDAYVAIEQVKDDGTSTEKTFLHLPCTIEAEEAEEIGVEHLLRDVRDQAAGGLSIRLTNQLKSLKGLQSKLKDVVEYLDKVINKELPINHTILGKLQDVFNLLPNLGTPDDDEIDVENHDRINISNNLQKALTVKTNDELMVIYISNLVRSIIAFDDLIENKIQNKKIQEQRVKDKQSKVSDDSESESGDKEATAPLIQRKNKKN
Test: two-hybrid

B1: Rpn11 (Saccharomyces cerevisiae proteasome lid subunit) (natural protein, S. cerevisiae, UniProt P43588 1-306, looked up)
chain: MERLQRLMMNSKVGSADTGRDDTKETVYISSIALLKMLKHGRAGVPMEVMGLMLGEFVDDYTVNVVDVFAMPQSGTGVSVEAVDDVFQAKMMDMLKQTGRDQMVVGWYHSHPGFGCWLSSVDVNTQKSFEQLNSRAVAVVVDPIQSVKGKVVIDAFRLIDTGALINNLEPRQTTSNTGLLNKANIQALIHGLNRHYYSLNIDYHKTAKETKMLMNLHKEQWQSGLKMYDYEEKEESNLAATKSMVKIAEQYSKRIEEEKELTEEELKTRYVGRQDPKKHLSETADETLENNIVSVLTAGVNSVAIK
  β-galactosidase activity relative to the GlRpn8-GlRpn11 pair: ~2 fold
